Here are results for one molecule from publication PMC9652331, “Cryo-EM structures of human m6A writer complexes”.

The target of the data set is HAKAI;WTAP;VIRMA;ZC3H13 (1106-1668);METTL3;METTL14 (Homo sapiens;Homo sapiens;Homo …, UniProt Q75N03;Q15007;Q69YN4;Q5T200;Q86U44;Q9HCE5 …, |||||). Put plainly: s4U UV crosslinking MS; sites METTL3 F321; VIRMA P140, E1597, F1706; EMSA: 5 nM FAM-RNA, 20 mM HEPES pH 7.5, 100 mM KCl, 10% glycerol, 1 mM DTT, 25 C, 20 min; 8% native PAGE in 1x TBE at 4 C; Kd from loss of free RNA, Hill fit, n. The following applies: protein: recombinant;recombinant;recombinant;recombinant;recombinant;recombinant, tags: untagged;N-6xHis;N-6xHis;N-Twin-Strep;N-GST-TEV, removed;N-6xHis-TEV. On the technique in general: Mobility shift assays separate free from complexed probe on a gel.

B1: s4U-ACTB-1 RNA (ssRNA)
RNA: GGCCCCUCCAUCGUCCACCGCAAAUGCUUCUAGGCGGACUAUGACUUAGUUGCGUUACACCCUUUCUUGACAAAACCUAACUUGCACAGAAAACA
modifications: 4-thiouridine (s4U); positions not given
As to B1, the binding result is “binds”.
